Source: PMC6356362

Biological target: recombinant GP of EBOV (Mayinga strain), mucin and TM domains-deleted protein (GP[change] sequence w (Zaire ebolavirus (EBOV), Mayinga strain), Q05320
Assay: SPR
Details: remark: other sources report otherwise

B1: recombinant human surfactant protein D (hSP-D) dodecamers, P35247 21-375 (natural protein)
chain: AEMKTYSHRTMPSACTLVMCSSVESGLPGRDGRDGREGPRGEKGDPGLPGAAGQAGMPGQAGPVGPKGDNGSVGEPGPKGDTGPSGPPGPPGVPGPAGREGPLGKQGNIGPQGKPGPKGEAGPKGEVGAPGMQGSAGARGLAGPKGERGVPGERGVPGNTGAAGSAGAMGPQGSPGARGPPGLKGDKGIPGDKGAKGESGLPDVASLRQQVEALQGQVQHLQAAFSQYKKVELFPNGQSVGEKIFKTAGFVKPFTEAQLLCTQAGGQLASPRSAAENAALQQLVVAKNEAAFLSMTDSKTEGKFTYPTGESLVYSNWAPGEPNDDGGSEDCVEIFTNGKWNDRACGEKRLVVCEF
For B1, which Kd is on record?
Its Kd is 330 pM.

And the koff?
Its koff is 0.00121 s⁻¹.

What about the kon of the same binder?
Its kon is 3.65e+06 M⁻¹ s⁻¹.
